Measurements reported in paper PMC5389548.

B1: sequence 2 (structured_DNA)
DNA: GGTTGGTGTGGTTGG
modifications: 2'F-ANA at T3, G8, T12; full pattern lost in text
B2: sequence 1 (structured_DNA)
DNA: GGTTGGTGTGGTTGG
modifications: 2'F-ANA at T3, G8, T12; full pattern lost in text
B3: sequence 11 (structured_DNA)
DNA: GGTTGGTGTGGTTGG
modifications: ten 2'F-ANA, positions lost in text
B4: sequence 15 (structured_DNA)
DNA: GGTTGGTGTGGTTGG
modifications: 2'F-araT, positions lost in text
B5: TBA1 control (structured_DNA)
DNA: GGTTGGTGTGGTTGG
B6: sequence 16 (structured_DNA)
DNA: GGTTGGTGTGGTTGG
modifications: 2'F-araT, positions lost in text
B7: sequence 10 (structured_DNA)
DNA: GGTTGGTGTGGTTGG
modifications: ten 2'F-ANA, positions lost in text
B8: sequence 4 (structured_DNA)
DNA: GGTTGGTGTGGTTGG
modifications: 2'F-ANA, positions lost in text
B9: sequence 3 (structured_DNA)
DNA: GGTTGGTGTGGTTGG
modifications: 2'F-ANA, positions lost in text
B10: sequence 6 (structured_DNA)
DNA: GGTTGGTGTGGTTGG
modifications: eight 2'F-ANA, positions lost in text

Each binder was assayed against thrombin (human, UniProt P00734;P00734 328-363;364-622) (assay: microarray sandwich fluorescence).

| Binder | Kd |
| --- | --- |
| B1 | 28 ± 1.2 nM |
| B2 | 28 ± 1.6 nM |
| B3 | 53 ± 16 nM |
| B4 | 85 ± 21 nM |
| B5 | 93 ± 23 nM |
| B6 | 117 ± 44 nM |
| B7 | 45 ± 14 nM |
| B8 | 41 ± 3.7 nM |
| B9 | 39 ± 10 nM |
| B10 | 29 ± 2.7 nM |
